How the values were obtained:
HepG2 cells = test: In vitro cellular uptake in HepG2 cells; assay type: cell-based
[1] = Kidney-targeted delivery of full-length (22mer) anti-miR-21 PNA: biodistribution (IVIS, flow cytometry); assay type: in vivo, C57BL/6J mice
Experimental: FIG. 9 illustrates that LBAAc ligand efficiently delivered a 22mer long PNA sequence to the kidney. […] PNA 6 contains succinic acid (SA) at 5′ end for conjugation with LBA-lysine conjugate. Lysine (K) was added on the 3′ end of the PNA followed by fluorescent probe 5-carboxytetramethylrhodamine (TAM) of each PNA. 000 represents the trioxo-miniPEG linker. […] Radiant Efficiency for TAMRA fluorescence in the kidneys of C57BL6/J mice. Results are represented as mean of n=2 with standard error mean as the error bars.
Full-length (22mer) PNA oligomers were designed and synthesized namely PNA 5, PNA 6 and LBAAc conjugate (PNA 6-LBAAc) to target miR-21 (FIG. 9A). PNA 6 was conjugated with LBAAc as described in FIG. 2A.
Biodistribution evaluation of PNA 5 and PNA 6-LBAAc in C57BL/6J mice at a low subcutaneous dose of 1.5 mg/kg (1/10 molar equiv of short PNA 1&2): A lower dose biodistribution was chosen for a comprehensive validation of LBAAc for kidney targeting. […] (FIG. 9D). Results were confirmed by flow cytometry analysis of kidney cells. The kidney cells obtained after RBC lysis were fixed with 4% PFA and analyzed for TAMRA fluorescence. The histogram plots representing the TAMRA fluorescence from 4 and 24 h samples confirmed the elimination of PNA 5 and accumulation of PNA 6-LBAAc in the kidney cells (FIG. 9C). […] Possibly the Tmax for kidney accumulation of PNA 6-LBAAc is >4 h. Decisively, the higher concentration of PNA 6-LBAAc in the kidney at 24 h compared to 4 h time point against PNA 5 confirmed the kidney targeting and potential of the LBAAc ligand.

Molecule | cellular uptake (HepG2 cells) | organ distribution of TAMRA fluorescence signal (IVIS) ([1]; 1.5 mg/kg subcutaneous) | overall pharmacokinetics / biodistribution ([1]; 1.5 mg/kg subcutaneous) | increase in kidney retention compared to unconjugated PNA 5 ([1]; 1.5 mg/kg subcutaneous, 24 h) [fold] | kidney concentration at 24 h ([1]; 1.5 mg/kg subcutaneous, 24 h) | TAMRA fluorescence in kidney cells (flow cytometry) ([1]; 4 and 24 h samples) | Tmax ([1]; mouse, in vivo, sc, 1.5 mg/kg subcutaneous, read-out: Tmax for kidney accumulation) [h]
tris N-acetylgalactosamine [tGalNAc, reference compound] | ASGPR mediated cellular uptake |  |  |  |  |  | 
CC(=O)OC[C@H]1O[C@@H](O[C@@H]([C@H](OC(C)=O)[C@@H](OC(C)=O)C(=O)NCCCC[C@H](NC(=O)[C@H](OC(C)=O)[C@@H](OC(C)=O)[C@H](O[C@@H]2O[C@H](COC(C)=O)[C@H](OC(C)=O)[C@H](OC(C)=O)[C@H]2OC(C)=O)[C@@H](COC(C)=O)OC(C)=O)C(=O)NCCCCCCNC(=O)CCC(=O)NCCOCCOCCOCC(=O)NCCN(CC(=O)NCCN(CC(=O)NCCN(CC(=O)NCCN(CC(=O)NCCN(CC(=O)NCCN(CC(=O)NCCN(CC(=O)NCCN(CC(=O)NCCN(CC(=O)NCCN(CC(=O)NCCN(CC(=O)NCCN(CC(=O)NCCN(CC(=O)NCCN(CC(=O)NCCN(CC(=O)NCCN(CC(=O)NCCN(CC(=O)NCCN(CC(=O)NCCN(CC(=O)NCCN(CC(=O)NCCN(CC(=O)NCCN(CC(=O)N[C@@H](CCCCNC(=O)COCCOCCOCCNC(=O)c2ccc(-c3c4ccc(=[N+](C)C)cc-4oc4cc(N(C)C)ccc34)c(C(=O)[O-])c2)C(N)=O)C(=O)Cn2cnc3c(N)ncnc32)C(=O)Cn2cc(C)c(=O)[nH]c2=O)C(=O)Cn2ccc(N)nc2=O)C(=O)Cn2cnc3c(=O)[nH]c(N)nc32)C(=O)Cn2cnc3c(N)ncnc32)C(=O)Cn2cnc3c(N)ncnc32)C(=O)Cn2cc(C)c(=O)[nH]c2=O)C(=O)Cn2cnc3c(N)ncnc32)C(=O)Cn2cnc3c(=O)[nH]c(N)nc32)C(=O)Cn2cc(C)c(=O)[nH]c2=O)C(=O)Cn2ccc(N)nc2=O)C(=O)Cn2cc(C)c(=O)[nH]c2=O)C(=O)Cn2cnc3c(=O)[nH]c(N)nc32)C(=O)Cn2cnc3c(N)ncnc32)C(=O)Cn2ccc(N)nc2=O)C(=O)Cn2cc(C)c(=O)[nH]c2=O)C(=O)Cn2cnc3c(N)ncnc32)C(=O)Cn2ccc(N)nc2=O)C(=O)Cn2cnc3c(N)ncnc32)C(=O)Cn2cnc3c(N)ncnc32)C(=O)Cn2ccc(N)nc2=O)C(=O)Cn2cc(C)c(=O)[nH]c2=O)[C@@H](COC(C)=O)OC(C)=O)[C@H](OC(C)=O)[C@@H](OC(C)=O)[C@H]1OC(C)=O [PNA 6-LBAAc] |  | limited to the kidney only | slower biodistribution | 4 | concentration increased in the kidney | accumulation | > 4
O=C(O)[C@H](O)[C@@H](O)[C@H](O[C@@H]1O[C@H](CO)[C@H](O)[C@H](O)[C@H]1O)[C@H](O)CO [LBA, lactobionic acid] | ASGPR mediated cellular uptake |  |  |  |  |  | 
